# Measured values published in the RNAGym collection of RNA variant scans (doi:10.1021/acssynbio.7b00057).
# B1: Pistol ribozyme (parent)
# chain: GGGUCGUUGUUCCAUAAUCGCGUGGAUAUGGCACGCAAGUUUCUACCGGGCACCGUAAAUGUCCGACUGGAGCCGUUCGGGCGGCUAUAAACAGACCUCAGGCCCGAAGCGUGGCGGCACCUGCCGCCGGUGGUAAAAAAGAUCGGAAGAGCACACGUCU
# Variants of: B1
# Assay: aptazyme ON/OFF ratio, guanine; higher = stronger switching; co-transcriptional cleavage with and without guanine
row,Variant,aptazyme ON/OFF ratio
1,U7C U10A U11C C12U C13A,1.05
2,U7C U10A U11C C12U C13G,1.07
3,U7C U10A U11C C12U C13U,1.05
4,U7C U10G U11G C12G C13A,1.1
5,U7C U10G U11G C12G C13U,1.16
6,U7C U10G U11G C12G C13G,0.991
7,U7C U10A C12A C13G,1.08
8,U7C U10A C12A C13A,1.16
9,U7C U10A C12A C13U,1.25
10,U7C U10C C12A C13G,1.18
11,U7C U10C C12A C13A,1.37
12,U7C U10C C12A C13U,1.34
13,U7C U10A U11A,1.29
14,U7C U10A U11C,1.04
15,U7C U10A U11G,1.46
16,U7C U10A U11C C13U,1.01
17,U7C U10A U11C C13A,1.02
18,U7C U10A U11C C13G,1.01
19,U7C U10G U11A C12A C13U,1.09
20,U7C U10G U11A C12A C13A,1.2
21,U7C U10G U11A C12A C13G,1.17
22,U7C U11A C12G,1.21
23,U7C U11A C12A,1.51
24,U7C U10A U11G C13U,1.28

row,Variant,aptazyme ON/OFF ratio
1,U7C U10A U11G C13G,1.17
2,U7C U10A U11G C13A,1.24
3,U7C U10G U11C C12A C13G,1.11
4,U7C U10G U11C C12A C13A,1.21
5,U7C U10G U11C C12A C13U,1.18
6,U7C U8G U11C C12U,1.28
7,U7C U8G U11C C12G,1.3
8,U7C U8G U11C C12A,1.35
9,U7C U10C U11A C12U C13A,1.28
10,U7C U10C U11A C12U C13G,1.32
11,U7C U10C U11A C12U C13U,1.22
12,U7C U10C U11A C13G,1.21
13,U7C U10C U11A C13U,1.38
14,U7C U10C U11A C13A,1.14
15,U7C U10C C12G C13A,1.23
16,U7C U10C C12G C13G,1.18
17,U7C U10C C12G C13U,1.21
18,U7C U10C U11C C12U C13U,1.33
19,U7C U10C U11C C12U C13G,1.24
20,U7C U10C U11C C12U C13A,1.25
21,U7C U10G U11G C13U,1.22
22,U7C U10G U11G C13G,1.13
23,U7C U10G U11G C13A,1.15
24,U7C U10A C12G C13G,1.14

row,Variant,aptazyme ON/OFF ratio
1,U7C U10A C12G C13U,1.23
2,U7C U10A C12G C13A,1.18
3,U7C U8G U11G C13G,1.07
4,U7C U8G U11G C13A,1.13
5,U7C U8G U11G C13U,1.14
6,U7C U10A U11G C12G C13U,1.12
7,U7C U10A U11G C12G C13A,1.26
8,U7C U10A U11G C12G C13G,1.16
9,U7C U10A C12G,1.29
10,U7C U10A C12U,1.09
11,U7C U10A C12A,1.22
12,U7C U8G U10G U11A C12U C13U,1.23
13,U7C U8G U10G U11A C12U C13G,1.11
14,U7C U8G U10G U11A C12U C13A,1.23
15,U7C U8G U10G U11G C12U C13A,1.25
16,U7C U8G U10G U11G C12U C13G,1.26
17,U7C U8G U10G U11G C12U C13U,1.4
18,U7C U8G U11C C12U C13A,1.35
19,U7C U8G U11C C12U C13U,1.35
20,U7C U8G U11C C12U C13G,1.19
21,U7C U8G U10G U11A C13G,1.13
22,U7C U8G U10G U11A C13U,1.28
23,U7C U8G U10G U11A C13A,1.18
24,U7C U8G U10G U11G,1.63

row,Variant,aptazyme ON/OFF ratio
1,U7C U8G U10G U11A,1.17
2,U7C U8G U10G U11C,1.09
3,U7C U10C U11A C12A C13U,1.3
4,U7C U10C U11A C12A C13G,1.26
5,U7C U10C U11A C12A C13A,1.49
6,U7C U10C U11C C12G C13U,1.24
7,U7C U10C U11C C12G C13G,1.18
8,U7C U10C U11C C12G C13A,1.25
9,U7C U10C C13U,2.47
10,U7C U10C C13G,1.28
11,U7C U10C C13A,1.11
12,U7C U10G C12U C13A,1.25
13,U7C U10G C12U C13U,1.24
14,U7C U10G C12U C13G,1.11
15,U7C U10A U11G C12A,1.29
16,U7C U10A U11G C12G,1.18
17,U7C U10A U11G C12U,1.19
18,U7C U10A U11A C12G C13A,1.11
19,U7C U10A U11A C12G C13G,1.33
20,U7C U10A U11A C12G C13U,1.17
21,U7C U10A U11A C13U,1.19
22,U7C U10A U11A C13G,1.2
23,U7C U10A U11A C13A,1.28
24,U7C U10G U11C C12A,2.07

row,Variant,aptazyme ON/OFF ratio
1,U7C U10G U11C C12U,1.16
2,U7C U10G U11C C12G,1.52
3,U7C U8G U11A C12G,1.1
4,U7C U8G U11A C12U,1.15
5,U7C U8G U11A C12A,1.14
6,U7C U10G U11G C12U C13A,1.13
7,U7C U10G U11G C12U C13U,1.3
8,U7C U10G U11G C12U C13G,1.1
9,U7C U10G U11A C13A,1.1
10,U7C U10G U11A C13U,1.08
11,U7C U10G U11A C13G,1.18
12,U7C U10G C12A C13A,1.15
13,U7C U10G C12A C13G,1.14
14,U7C U10G C12A C13U,1.15
15,U7C U8G U11G C12U,1.19
16,U7C U8G U11G C12G,1.1
17,U7C U8G U11G C12A,1.29
18,U7C U8G U10C U11G,2
19,U7C U10A U11G C12U C13G,1.2
20,U7C U10A U11G C12U C13A,1.35
21,U7C U10A U11G C12U C13U,1.5
22,U7C U11A C12A C13U,1.28
23,U7C U11A C12A C13G,1.25
24,U7C U11A C12A C13A,1.23

row,Variant,aptazyme ON/OFF ratio
1,U7C U8G U10G,1.22
2,U7C U8G U10G C12A,1.21
3,U7C U8G U10G C12G,1.36
4,U7C U8G U10G C12U,1.24
5,U7C U8G U10G C12A C13A,1.24
6,U7C U8G U10G C12A C13G,1.09
7,U7C U8G U10G C12A C13U,1.33
8,U7C U10C U11G C13G,1.17
9,U7C U10C U11G C13A,0.947
10,U7C U10C U11G C13U,1.74
11,U7C U8G U10C U11C C12G C13U,1.24
12,U7C U8G U11G C12G C13U,1.05
13,U7C U8G U11G C12G C13A,1.07
14,U7C U8G U11G C12G C13G,1.08
15,U7C U10A C12U C13A,1.19
16,U7C U10A C12U C13U,1.35
17,U7C U10A C12U C13G,1.14
18,U7C U8G U10C U11G C13U,2.15
19,U7C U8G U10C U11G C13A,1.39
20,U7C U8G U10C U11G C13G,1.1
21,U7C U8G U10C U11C C13U,1.11
22,U7C U8G U10C U11C C13A,1.03
23,U7C U8G U10C U11C C13G,1.09
24,U7C U8G U10G C12U C13A,1.27

row,Variant,aptazyme ON/OFF ratio
1,U7C U8G U10G C12U C13U,1.37
2,U7C U8G U10G C12U C13G,1.23
3,U7C U8G U10G U11C C12A C13U,1.42
4,U7C U8G U10G U11C C12A C13G,1.1
5,U7C U8G U10G U11C C12A C13A,1.19
6,U7C U10G C12G C13G,1.13
7,U7C U10G C12G C13A,1.17
8,U7C U10G C12G C13U,1.18
9,U7C U10G U11C C12G C13G,1.16
10,U7C U10G U11C C12G C13A,1.22
11,U7C U10G U11C C12G C13U,1.28
12,U7C U8G U10G C12G C13A,1.11
13,U7C U8G U10G C12G C13U,1.29
14,U7C U8G U10G C12G C13G,1.14
15,U7C U10C U11G C12U,1.18
16,U7C U10C U11G C12G,1.3
17,U7C U10C U11G C12A,1.35
18,U7C U8G U10G U11C C12G,1.55
19,U7C U8G U10G U11C C12U,1.16
20,U7C U8G U10G U11C C12A,1.34
21,U7C U8G U10G C13A,1.4
22,U7C U8G U10G C13U,1.35
23,U7C U8G U10G C13G,1.29
